Target: T1, T Cell Immunoglobulin and Mucin Domain-3 (TIM-3) on circulating CD14+ monocytes of patients (human, UniProt Q8TDQ0 22-301)
T1 construct: whole, on cells; Endogenous receptor on peripheral blood monocytes of patients in a first-in-human study; also called HAVCR2; TIM-3 receptor
Assay: flow cytometry receptor occupancy on circulating monocytes, whole blood of treated patients
Procedure: To measure binding in the RO assay, whole blood was collected from patients at baseline (Day 1 predose), 48 hours following the first dose (Day 3) and prior to the second dose (Day 15 predose) for the Q2W schedule. […] Samples for occupancy measurement on the Q3W schedule were collected as follows: Day 1 predose, Day 5, Day 15 and Day 22.
All samples were pre-dose, with occupancy measured after a single dose on day 1. The occupancy ratio (free TIM-3:total TIM-3) is determined at various time points (for example, timepoints can include day 1, day 3, day 15, day 22, and day 29).

B1: TSR-022 (antibody, human IgG4 S228P, kappa, V domains shown)
VH: EVQLLESGGGLVQPGGSLRLSCAAASGFTFSSYDMSWVRQAPGKGLDWVSTISGGGTYTYYQDSVKGRFTISRDNSKNTLYLQMNSLRAEDTAVYYCASMDYWGQGTTVTVSS
VL: DIQMTQSPSSLSASVGDRVTITCRASQSIRRYLNWYHQKPGKAPKLLIYGASTLQSGVPSRFSGSGSGTDFTLTISSLQPEDFAVYYCQQSHSAPLTFGGGTKVEIKR
notes: Humanized IgG4 (human IGHG4*01 scaffold) with a kappa light chain (IGKC*01); also called anti-TIM-3 antibody; exemplary anti-TIM-3 antibody
Question: Does B1 bind?
Answer: Result: binds

— US20190322746A1 (TESARO, published 2019)
